Experiment: label from the status in PepcDB records
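Also: failed if final PepcDB status was selected cloned or expressed and not failed if soluble or beyond.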

Sequence	protein production
MSSARFDSSDRSAWYMGPVSRQEAQTRLQGQRHGMFLVRDSSTCPGDYVLSVSENSRVSHYIINSLPNRRFKIGDQEFDHLPALLEFYKIHYLDTTTLIEPAPRYPSPPMGSVSAPNLPTAEDNLEYVRTLYDFPGNDAEDLPFKKGEILVIIEKPEEQWWSARNKDGRVGMIPVPYVEKLVRSSPHGKHGNRNSNSYGIPEPAHAYAQPQTTTPLPAVSGSPGAAITPLPSTQNGPVFAKAIQKRVPCAYDKTALALEVGDIVKVTRMNINGQWEGEVNGRKGLFPFTHVKIFDPQNPDENE	not failed
MLSIIEQIKQGQLWDFHGGIHPEENKTISNQAAIQQAGIPSQLVLPLKQHIGGKGDILVSVGDVVLKGQPLTQGNIAMCVPVHAPTSGRITAIEPRTVAHPSGLTDLCIVIESDGEDRWVEDRTPIDDFSSVDPIDLIERIRQSGISGMGGAGFPTSRKIQSGIGKAEMLIINAAECEPYITADDRLMREHAEEIIDGIKILQHILTPKVCIIAIEDNKPEAVKALNQAVTDHDNIIIRVIPTKYPSGGSRQLTKIITGQEVPANGRSTDIGVIVQNVGTVFAIKRAICDAEPLIERIVTLTGNSMSTPGNLWVRLGTCIDYLMELVGYKADKKHPRIIMGGSLMGFTLPHQQVPITKITNCIITPDKKELPLYNHEMACIRCSSCADACPTSLLPQQLYWYSKSEDYDKCNEYNLNDCIECGACAYVCPSEIPLVQYYRQAKSEIYSRKQDALAAERAKLRFEEKNARLERDKLERENKFKQAAENRRKEMKTENKGGDDAIAAAIARVKAQKAAQESGVAAPKPAVAAAIARAKAKQAEAAKSETSVPDNSEMAKLREERKQQARERKAKLAEETTATDSDKSEKKDAVAAAIARAKARKAAQAEEKTETPVASEEKNQNTEGSADPKKAAVAAAIARAKARKAAQAEEKTETPVTSEEKNQNTEGSADPKKAAVAAAIARAKARKAAQAEEKTETPVASEEKNQNTEGSADPKKAAVAAAIARAKARKAAQAEEKTETPVTSEEKNQNTEGSADPKKAAVAAAIARAKARKATQAEEKTETPVTSEEKNQNTEESADPKKAAVAAAIARAKARKAAQENNKKEE	failed
MKYIRKSISIFAVLALVFILSFGNVSAGTIYESKTKETVTSGVTLETITRFTDDGWQKINVLRVDLENPNVKVDTLIDSESIKKLTNVKNLAQSAGAVAAVNAGFFNWLKGESGKGYPDGPVIKSGEFLSVDSEYNRYNNSMATIAIDKDNNVYFDFWKTDITLHAPDGSTTRVFQYNKPSPFQYTDITIWTSAWDKYSLGVSQQYPDLVEVVVDNGTVVEIRQGLPAVEIPQNGYVIISRGANAQFLLQHFKVGDPVEISFSTVLDWQKIEMAVTGSAILVKDGQIPEKFSYEISGVHPRTAAGTSKSGKELILVTVDGRQAASKGMTQRELANLMLSLGAYNAINLDGGGSTSMVSRIPGTNDLKVVNTPSDGALRSISTAIGVFSVAPPSELAGMIIETQPNVFVNSSTTLTVKGYDKYFNPVSVDPNSINWSVSGIKGSFAGNVFRAESSGIGTITATVNGIKASTTIRALEAPNKLILSTTKLNLLKGSSYSFTVKGVDNNGYSSYINFADINWTVNGDIATIEKNKITAVKPGTGYIEAAFGDARAYCAVSVASESTYLVDDFEKKNGSFETVPANLPGSYELSSEVKKSGNYSGKLSYDFSYLEGTRAAYLVFPNGGIDLDGNTVEITMMVNNPQQNPNWLRAEVIDSGGQKHLVDFTRDLTWTGWGRVFASLRDIKSPAKLTKIYVVQVNPVPSSGCIYIDDLSLVKATFPEINESTIPKDVVLSDRDNKEAALNKDSIKISVFSGKSNPENMLQKLLNTKFYNKVKADGYMKSIQDISNINTNTHVDIGGTRLITLNTTDKSIRTSASGQWQWFFDKLNSHTGDNIFIFMKNSPDTFVDPLEAKLFKDILIEHKEKTGKNIWVFYGNSSETYYADNGIKYFGVAGLNIGGLTPDNAKNVKYIEITVNGKEVSYQYKSPLK	failed
MDPHVSHSAHLFSLRIAHALNEACVKDRYSFKRFGQDLLAGLTVGIIAIPLAMALAIASGVPPQYGLYTAIVGGFIIAMTGGSRYSVSGPTAAFVVLLYPIAQQFGLAGLLIATVMSGMMLVAMAMLRLGRLILYIPESVTLGFTAGIGVVIATLQLKDFFGLQIEHMPEQYFAKLMALGQALPSLHLPSLFIAAATLATMLLWPRLKIPVPAHLPAIALGSILALILNAMGAEIETIGTRFHYQLTDGGIGSGIPAVLPHFEWPWLQTGPNGQAFEFNLAAFQALLPAAFAIAMLGAIESLLCAVVLDGMTGKRHSANSELLGQGIGNIIAPFFGGIPATAAIARSAANVKAGAQSPIASMIHALVVLIGLVALAGILAYLPMSAMAALLLVVAWNMSEAPKAVHLLKTAPTSDILVFLSCFSLTVIFDMVIAISVGIILAALLFMKEIAEMTKLYDISSNKRYVDQSLPADWAVLKINGPLFFAAADRIFAEIASLTQDKQVIVLYLDGVSILDAGGLAALSKLIEKCKLNQTKLLITDLQFQPIRTLAKAKIQPVEGVLKFYPTLREALTEAPSPELEATPEATD	failed
NPVILADLDDTLFQTRRKMVDELALAPYKTGALDRSLAPRSFMTQEQAMLVDWMLEHADLIPVTARGTEEMSRVTIPFHSWAITTHGAVVLTPEKVADEQWQHHITQSLTPYKQPLLRLQQSITQLMAERNIDGWARINYEYDDLPIYLVMKHNDSARLDELYAIGDEIEKIFSTKGFYIHRNSNNIAWLPEPIEKGKAVTYLLNKLKAERGVFPVIGFGDSLSDHRFMKLCN	not failed
MSEVILDIMNNELVSSLILRELIQYRRRFTHSTKSVSEEESQVTQVQLPRIRTFVDEGRRVELILPAFPVKSPSPYKVLGRMPDMAERLSLIFLNSLCQRIQLYYPPGAHIRICSDGHVFGDLIGTSDETINTYQDEIENLLHELGAVHLSVFNLKDVENMAALTADYGHLRQRLVEDYAESAEEIKEQLMQSEEGLQLYRSITRFLYEDSLRPDYTGSNAALQKDAKKRACGVIQRSWAWGNLLAENFPDAIRLSIHPQPADSLKLGIHMMPTKDDWLTPWHGVAANVNGQFVLMKNTDAQQLAGEVVEIRGTPSHYLVKQSDVA	failed
MNIDEIERKIDEAIEKEDYETLLSLLNKRKELMEGLPKDKLSEILEKDRKRLEIIEKRKTALFQEINVIREARSSLQK	not failed
MKNNPLISIYMPTWNRQQLAIRAIKSVLRQDYSNWEMIIVDDCSTSWEQLQQYVTALNDPRITYIHNDINSGACAVRNQAIMLAQGEYITGIDDDDEWTPNRLSVFLAHKQQLVTHAFLYANDYVCQGEVYSQPASLPLYPKSPYSRRLFYKRNIIGNQVFTWAWRFKECLFDTELKAAQDYDIFLRMVVEYGEPWKVEEATQILHINHGEMQITSSPKKFSGYFHFYRKHKDKFDRASKKYQLFTLYQIRNKRMTWRTLLTLLSVRNGKRLADGIRGRLEHHHHHH	not failed
MTKIIPVASGKGGVGKTSFVANVGYKLSSLGKTVILVDLDLGGSNLHTCLGVKNKGVGIGSFINKKSKSFSDLVCKTSYDKLYLIPGDALYTGTANLPFSIKKKIIESIQKDLIADFIFLDLGSGTSYNTIDFYLASYSGVIVTIPETPSILNAYSFLKNALYRLLYLGFPQKSPERDYIGNFFKDKIEGTNLGFKDLVVGIELISLSSSLKVKRMMNNFYPRVVLNRIETSEEIAMCENLINVVKNNINIPIEFIGFVPFAKSFREAINNRVPFIDFEKNSKLNKYFEFIAGNLIKSPIEGSPYIYDDIYDMIKDQSRFIRKLEHHHHHH	not failed
MSKQAVYKIELKIFGYFILILMLSTITVILMLIVKNALEEVLIRYNENTLMTAKFLFCDVKKFSIVMYFFVFVIWSHLLLKRKVQYFINLSESTSEIAKGNFKVIIPVKREDEFGNLAKGINEIVEKFNFILKKEKEIEKTKIDLITNVSHDLRTPLTSILGYLELVENDQYKDEVALWYYIDIAYNKTKRLKVLIDDLFQLTTLNEHSMKLCKKEINIAELLKQLIGEYMLNFQKAGIRCRLKLTDEKLYVLGDAVLLIRAFENIIINCIKYSKTSEIMDVSVQRKGDMAVLNFINYGEPIPAIDIPYIFQRFYRVDKSRSDKLGGSGLGLAIAKNIIDITGGNIEVESDTTRTNFKIVLPCYGK	failed
MIDKQSGIPIYIQIQSEIKKKMEDGVWKVGTSIPAERQLAEMFHVSRMTVRQAIQGLVDDNILQRRVGAGTFIAEKKLTERLEAVTSFTNLMLQEGKVPSTRIVSYGIRPASTQEQEALQLPENSNVMKIERIRYGDRVPILYEVAAIPEKIASLLTKEDIMDSLYKAIELKLGQPIGEAEQIMEASLVSEKIAPYLDVKLGSPVMKLRQITTLEDGRPFEFTRSQYVGSRFQFVARIKQ	failed
MVPHIDGLFLRDVEAVLTAPDRADLPVLNPGLGTWVDKTTVTWFKFNHQLAVTIGDILQRNFHHAWPTYRMIPVVFKASTLCMHTWDSRHTLTVWTQFNLVARTLYRDNMRAMKRRWARGLDKSRWMTTTVWNDLVDMFTEFGPDDVGFMS	failed
MAMAVPVSARPQSPAEGFYAINNQFQTNGPKGFSEIKILANEDMFLRMDLPGVPDEGGLSVYHNRSQETVVVFAKAPKVHTHDSTERRYQTMTGIGCSCCAISSITTHMSDGVFRVILSKTRIDPHRSPCTDPALTGPVLQPHPLAFPQPTMAYESKQLPNGKLFVRADMPGVPKENFTVSVTNGRVKVTGQAPAVSHDSSGRFYSGDVAMLSTPVDIPSRRIKTIAKNGVIRLLIPPF	failed
MSRKYFVGGNFKCNGTKESLKTLIDSFKQVESSNSEVYVFPTSLHISLVKEFFGNDHPGVFKIGSQNISCTGNGAFTGEVSCEMLKDMDVDCSLVGHSERRQYYSETDQIVNNKVKKGLENGLKIVLCIGESLSERETGKTNDVIQKQLTEALKDVSDLSNLVIAYEPIWAIGTGVVATPGQAQEAHAFIREYVTRMYNPQVSSNLRIIYGGSVTPDNCNELIKCADIDGFLVGGASLKPTFAKIIESAQ	not failed
MFDATRAAFLGVAVFISVLLVASFFSPTPGRAVEPAPAGAPAQEGSLPHDGLGSIKPIHDVDLGGVEQPPLPAPVDPDPSFNPQPPFAPGELREGFVDVGNGNIRRYLIHVGTNYQPHAPELTPVVFGFGGWKDTPEKFADYSRFGLTDFGANAMIIYPEGIARAWEGAPYAATRVGDDVHFVRTILNAVDADYRIDRSRVYAVGMSNGGGMAASLACHAPDLVAGVVSVSAAYYEPVVADCAPGAVATLDIHGTHDEVIAYQGGMRHGAPFLGAEQVVAGVAARNGCGPALPPRWIEGPAEHYGFAGCAAPVEHVRVLGQKHVWNGVPHATTLAWEFLHHQHK	failed
MAPHSLKKNYRCSRSLKQFYGGGPFIVSSDGSFIACACGDVINIVDSTDSSVKSTIEGESDTLTALALSPDDKLLFSAGHSRQIRVWDLETLKCIRSWKGHEGPVMGMACHASGGLLATAGADRKVLVWDVDGGFCTHYFRGHKGVVSSILFHPDSNKNILISGSDDATVRVWDLNAKNTEKKCLAIMEKHFSAVTSIALSEDGLTLFSAGRDKVVNLWDLHDYSCKATVATYEVLEAVTTVSSGTPFASFVASLDQKKSKKKESDSQATYFITVGERGVVRIWKSEGSICLYEQKSSDITVSSDDEESKRGFTAAAMLPSDHGLLCVTADQQFFFYSVVENVEETELVLSKRLVGYNEEIADMKFLGDEEQFLAVATNLEEVRVYDVATMSCSYVLAGHKEVVLSLDTCVSSSGNVLIVTGSKDKTVRLWNATSKSCIGVGTGHNGDILAVAFAKKSFSFFVSGSGDRTLKVWSLDGISEDSEEPINLKTRSVVAAHDKDINSVAVARNDSLVCTGSEDRTASIWRLPDLVHVVTLKGHKRRIFSVEFSTVDQCVMTASGDKTVKIWAISDGSCLKTFEGHTSSVLRASFITDGTQFVSCGADGLLKLWNVNTSECIATYDQHEDKVWALAVGKKTEMIATGGGDAVINLWHDSTASDKEDDFRKEEEAILRGQELENAVLDAEYTKAIRLAFELCRPHKVFELFSGLCRKRDSDEQIVKALQGLEKEEFRLLFEYVREWNTKPKLCHIAQFVLYKTFNILPPTEIVQVKGIGELLEGLIPYSQRHFSRIDRFVRSSFLLDYTLGEMSVIDPETVETEYPKDEKKKEKDVIAAMEQDTDELKQETPSRKRKSQKSKGKSNKKRLIAEAQGSVIAV	failed

From a protein production outcome set (Wang et al. 2014)
